Experimental findings from the DeepSol protein solubility set are described below.

The series is described as follows: soluble on expression in E. coli; label from the status in PepcDB or PDB records.
In the case of “SNQEPATILLIDDHPMLRTGVKQLISMAPDITVVGEASNGEQGIELAESLDPDLILLDLNMPGMNGLETLDKLREKSLSGRIVVFSVSNHEEDVVTALKRGADGYLLKDMEPEDLLKALHQAAAGEMVLSEALTPVLAASLRANRATTERDVNQLTPRERDILKLIAQGLPNKMIARRLDITESTVKVHVKHMLKKMKLKSRVEAAVWVHQERIF”, the “soluble on expression in E. coli” value is listed as “soluble”.
As to “SNTRNFVLRDEDGNEHGVFTGKQPRQAALKAANRGSGTKANPDIIRLRERGTKKVHVFKAWKEIVDAPKNRPAWMPEKISKPFVKKERIEKLE”, the “soluble on expression in E. coli” value was “soluble”.
In the case of “SPAPPACDLRVLSKLLRDSHVLHSRLSQCPEVHPLPTPVLLPAVDFSLGEWKTQMEETKAQDILGAVTLLLEGVMAARGQLGPTCLSSLLGQLSGQVRLLLGALQSLLGTQLPPRGRTTAHKDPNAIFLSFQHLLRGKVRFLMLVGGSTLCVRRAPPTTAVPS”, the “soluble on expression in E. coli” value was “soluble”.
To “SPEFMVKAKSWTLKKHFQGKPTQSDFELKTVELPPLKNGEVLLEALFLSVDPYMRIASKRLKEGAVMMGQQVARVVESKNSAFPAGSIVLAQSGWTTHFISDGKGLEKLLTEWPDKLPLSLALGTIGMPGLTAYFGLLEVCGVKGGETVLVSAAAGAVGSVVGQIAKLKGCKVVGAAGSDEKIAYLKQIGFDAAFNYKTVNSLEEALKKASPDGYDCYFDNVGGEFLNTVLSQMKDFGKIAICGAISVYNRMDQLPPGPSPESIIYKQLRIEGFIVYRWQGDVREKALRDLMKWVLEGKIQYHEHVTKGFENMPAAFIEMLNGANLGKAVVTA” belongs “soluble”; to “SPGFSVGVIGDMFLLPNLNLRLLPTLHFGDKQFVFSDGEKPVASFSVRSNYLEFPLLLKYGSRRLNNMRPYLIGGPYWTMELGRKKGLEIYTKANDYGVQIGLGCDFYLPFFKLCPELRFSFGFPDVITHERPDLLDDYKLIYTQSISRARTRMIMLTFNFE”, “not soluble”.
The same measure for “SPNSQYLKTRILDIYTPEQRAGIEKSEDWRQFSRRMDTHFPKLMNELDSVYGNNEALLPMLEMLLAQAWQSYSQRNSSLKDIDIARENNPDWILSNKQVGGVCYVDLFAGDLKGLKDKIPYFQELGLTYLYLMPLFKCPEGKSDGGYAVSSYRDVNPALGTIGDLREVIAALHEAGISAVVDFIFNHTSNEHEWAQRCAAGDPLFDNFYYIFPDRRMPDQYDRTLREIFPDQHPGGFSQLEDGRWVWTTFNSFQWDLNYSNPWVFRAMAGEMLFLANLGVDILRMDAVAFIWKQMGTSCENLPQAHALIRAFNAVMRIAAPAVFFKSQAIVHPDQVVQYIGQDECQIGYNPLQMALLWNTLATREVNLLHQALTYRHNLPEHTAWVNYVRSHDDIGWTFADEDAAYLGISGYDHRQFLNRFFVNRFDGSFARGVPFQYNPSTGDCRVSGTAAALVGLAQDDPHAVDRIKLLYSIALSTGGLPLIYLGDEVGTLNDDDWSQDSNKSDDSRWAHRPRYNEALYAQRNDPSTAAGQIYQGLRHMIAVRQSNPRFDGGRLVTFNTNNKHIIGYIRNNALLAFGNFSEYPQTVTAHTLQAMPFKAHDLIGGKTVSLNQDLTLQPYQVMWLEIA”: “soluble”; for “SPYIPLMEFSCSHSHLVCLPAEWRTSCMPSSKMKEMSSLFPEDWYQFVLRQLECYHSEEKASNVLEEIAKDKVLKDFYVHTVMTCYFSLFGIDNMAPSPGHILRVYGGVLPWSVALDWLTEKPELFQLALKAFRYTLKLMIDKASLGPIEDFRELIKYLEEYERDWYIGLVSDEKWKEAILQEKPYLFSLGYDSNMGIYTGRVLSLQELLIQVGKLNPEAVRGQWANLSWELLYATNDDEERYSIQAHPLLLRNLTVQAAEPPLGYPIYSSKPLHIHLY”: “not soluble”.
For the sequence “SQLPPGKPEIFKCRSPNKETFTCWWRPGTDGGLPTNYSLTYHREGETLMHECPDYITGGPNSCHFGKQYTSMWRTYIMMVNATNQMGSSFSDELYVDVTYIVQPDPPLELAVEVKQPEDRKPYLWIKWSPPTLIDLKTGWFTLLYEIRLKPEKAAEWEIHFAGQQTEFKILSLHPGQKYLVQVRCKPDHGYWSAWSPATFIQIPSDFTMND”, the “soluble on expression in E. coli” value was “soluble”.
On to “SQPVAITDGIYWVGAVDWNIRYFHGPAFSTHRGTTYNAYLIVDDKTALVDTVYEPFKEELIAKLKQIKDPVKLDYLVVNHTESDHAGAFPAIMELCPDAHVLCTQRAFDSLKAHYSHIDFNYTIVKTGTSVSLGKRSLTFIEAPMLHWPDSMFTYVPEEALLLPNDAFGQHIATSVRFDDQVDAGLIMDEAAKYYANILMPFSNLITKKLDEIQKINLAIKTIAPSHGIIWRKDPGRIIEAYARWAEGQGKAKAVIAYDTMWLSTEKMAHALMDGLVAGGCEVKLFKLSVSDRNDVIKEILDARAVLVGSPTINNDILPVVSPLLDDLVGLRPKNKVGLAFGAYGWGGGAQKILEERLKAAKIELIAEPGPTVQWVPRGEDLQRCYELGRKIAARIAD”, for which the “soluble on expression in E. coli” value is reported as “soluble”.
The same measure for “SQYSAQRDLRMSPGDTVELGGYHFLFDGAKHHEGPNYTSDKGSIHVSRDGKEIATLHPEKRLYTVQSSMMTEAGIDAGFTRDLYVALGEPLENGAWAVRVHVKPFVR”: “not soluble”; for “SRKVFVGGLPPDIDEDEITASFRRFGPLVVDWPHKAESKSYFPPKGYAFLLFQEESSVQALIDACLEEDGKLYLCVSSPTIKDKPVQIRPWNLSDSDFVMD”: “soluble”.
To “SRQETGGNLMSEPLLIARTPDTELFLLPGMANRHGLITGATGTGKTVTLQKLAESLSEIGVPVFMADVKGDLTGIAQAGTASEKLLTRLKNIGVNDWQPHANPVVVWDIFGEKGHTVRATVSDLGPLLLARLLNLNDVQSGVLNIIFRIADDQGLLLLDFKDLRAITQYIGDNAKSFQNQYGNISSASVGAIQRGLLSLEQQGAAHFFGEPMLDIKDWMRTDANGKGVINILSAEKLYQMPKLYAASLLWMLSELYEQLPEAGDLEKPKLVFFFDEAHLLFNDAPQVLLDKIEQVIRLIRSKGVGVWFVSQNPSDIPDNVFGQLGNRVQHALRAFTPKDQKAVKTAAQTMRANPAFDTEKAIQELGTGEALISFLDAKGSPSVVERAMVIAPCSRMGPVTEDERNGLINHSPVYGKYEDEVDRESAYEMLQKGFQASTEQQNNPPVKGKEVAVDDGILGGLKDILFGTTGPRGGKKDGVVQTMAKSAARQVTNQIVRGMLGSLLGGRKR” belongs “not soluble”; to “SRSFRPLYRLIGWIDRFRVNEPVQELVMAKTDVTEFRKLSEAMLRTAHHNVEVFEQQKEFISHASHELQTPLAISRNKLEMLLQDPSLNEQQLEQIYKAIQSINHIVQLNKTLLLYSKIENHQFPEEESIDVNELLHNLAEEYEAIFANRRIRIVWSRSEPMVLSMNPTLAKVLLSNLLKNAYLHNLERDGEIHIDLTSMHCSIANTGVKNALDETLIFERFYHDMKQAHSSGLGLPIARSICQLYGLRLTYRFENGKHTFSIGKEA”, “not soluble”; to “SRSYRFSDYLHMSVSFSNDMDLFCGEDSGVFSGESTVDFSSSEVDSWPGDSIACFIEDERHFVPGHDYLSRFQTRSLDASAREDSVAWILKVQAYYNFQPLTAYLAVNYMDRFLYARRLPETSGWPMQLLAVACLSLAAKMEEILVPSLFDFQVAGVKYLFEAKTIKRMELLVLSVLDWRLRSVTPFDFISFFAYKIDPSGTFLGFFISHATEIILSNIKEASFLEYWPSSIAAAAILCVANELPSLSSVVNPHESPETWCDGLSKEKIVRCYRLMKAMAIENNRLNTPKVIAKLRVSVRASSTLTRPSDESSFSSSSPCKRRKLSGYSWVGDETSTSN”, “soluble”.
To “SSFFGFGQTAEIDIVLNDAETRKKVEHKTEDGKKDKYFLFYDGETVSGKVNVTLKTPGKRLEHYGIKIEFVGQIELYYDRGNHHEFVSLVKDLARPGELSQSQTFDFELTHVEKPYESYTGQNVKLRYFLRATISRRLNDISKEMDIVVQTLCTYPEINSSIKMEVGIEDCLHIEFEYNKSKYHLRDVIVGKIYFLLVRIKIKHMEIDIIKRETTGTGPSVYHENDTIAKYEIMDGAPVRGESIPIRLFLAGYEMTPTMRDINKKFSVRYYLNLVLIDEEERRYFKQQEITLWRKGDIVRRSMSQQATIAAQRYEGSNPEPTSAQAKEETD” belongs “soluble”.
As for “SSLDDKPQFPGASAEFIDKLEFIQPNVISGIPIYRVMDRQGQIINPSEDPHLPKEKVLKLYKSMTLLNTMDRILYESQRQGRISFYMTNYGEEGTHVGSAAALDNTDLVFGQYREAGVLMYRDYPLELFMAQCYGNISDLGKGRQMPVHYGCKERHFVTISSPLATQIPQAVGAAYAAKRANANRVVICYFGEGAASEGDAHAGFNFAATLECPIIFFCRNNGYAISTPTSEQYRGDGIAARGPGYGIMSIRVDGNDVFAVYNATKEARRRAVAENQPFLIEAMTYAIGHASTSDDSSAYRSVDEVNYWDKQDHPISRLRHYLLSQGWWDEEQEKAWRKQSRRKVMEAFEQAERKPKPNPNLLFSDVYQEMPAQLRKQQESLARHLQTYGEHYPLDHFDK”, the “soluble on expression in E. coli” value was “soluble”.
Take “SSNAKIDQLSSDVQTLNAKVDQASNDANAARSDAQAAKDDAARANQRLDNMATKYR”: the “soluble on expression in E. coli” value is listed as “soluble”.
Consider “SSQQRPARKLPSLLLDPTEETVRRRCRDPINVEGLLPSKIRINLEDNVQYVSMRKALKVKRPRFDVSLVYLTRKFMDLVRSAPGGILDLNKVATKLGVRKRRVYDITNVLDGIDLVEKKSKNHIRWIGSDLSNFGAVPQQKKLQEELSDLSAMEDALDELIKDCAQQLFELTDDKENERLAYVTYQDIHSIQAFHEQIVIAVKAPAETRLDVPAPREDSITVHIRSTNGPIDVYLCEVEQGQTSNKRSEGVGTSSSESTHPEGPEEEENPQQSEELLEVSN”, for which the “soluble on expression in E. coli” value is “soluble”.
The same measure for “SSSESEKDKERLIQAAKMFFFHVQDLASVINTLTELFSRSMNTQILLMAVRNNSYIKDFFEQMLKIFKEMQSVVDARHDKIQKESLCSKVAMAMCSVVQKSTNVEELHQSAKEVFKSAHTPVIISVLNSSNILGSLESSLSHLMKFPIMNLQLSDFYTEDTKEQSDVTTSERTRSPPGSSKTTMIDTLKKLQDVLKTEDSKNPTKSAADLLEQIVKAMGPILEILQKAIKTMEMNISVFKKASDK”: “soluble”; for “SSSSDESEVKEAPKEEAKADKPKVSAPAQRGSDFANIGPMYPLDPFTLNLLSDSGSRYVKCTIELEQNSELLKPELDKKVPVIRDIIIRTLTAKTFEEVSTQKGKERLKDELVGKINEILTDGFIKNVYFTDFVVS”: “not soluble”.
The same measure for “SSTAGDGERGTVGQEDSAAARPFRFSPEPTLEDIRRLHAEFAAERDWEQFHQPRNLLLALVGEVGELAELFQWKSDTEPGPQAWPPKERAALQEELSDVLIYLVALAARCHVDLPQAVISKMDTNRQRYPVHLSRGSACKYTDLPRGTISENQAVGAGDPASELRDQAST”: “soluble”.
“SSTWLSEAEMIALAGLLQMSQGEQTPNCVASSLPSTSCPDPVSVSEDPGPSGDQSCSGTDT”: the “soluble on expression in E. coli” value is reported as “soluble”.
The same measure for “STEKEKMIAGELYRSADETLSRDRLRARQLIHRYNHSLAEEHTLRQQILADLFGQVTEAYIEPTFRCDYGYNIFLGNNFFANFDCVMLDVCPIRIGDNCMLAPGVHIYTATHPIDPVARNSGAELGKPVTIGNNVWIGGRAVINPGVTIGDNVVVASGAVVTKDVPDNVVVGGNPARIIKKL”: “soluble”.
